Laboratory results published in patent US20180072815A1.

Target: commercially available anti-Stat3 antibody (Abcam)
Test: ELISA, antibody coated directly at 1 µg/mL

In the case of his-probe (H-3) biotin labeled antibody, the OD450 Values is reported as 0.018 OD450.
